Experiments:
Experiment in all cases: IP/MS, LZTR1 R810W-FLAG, U87
MYO10 = MYO10 (human, UniProt Q9HD67 1-2058, limits assumed)
Method in brief: (§1)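 Read-out: spectral counts from LC-MS/MS (Orbitrap Fusion) after MaxQuant identification. Variable modifications were Met oxidation, protein N-terminal acetylation and N/Q deamidation.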

VPS18 = molecular target: T1, VPS18 (human, UniProt Q9P253 2-973)
T1 sequence (looked up): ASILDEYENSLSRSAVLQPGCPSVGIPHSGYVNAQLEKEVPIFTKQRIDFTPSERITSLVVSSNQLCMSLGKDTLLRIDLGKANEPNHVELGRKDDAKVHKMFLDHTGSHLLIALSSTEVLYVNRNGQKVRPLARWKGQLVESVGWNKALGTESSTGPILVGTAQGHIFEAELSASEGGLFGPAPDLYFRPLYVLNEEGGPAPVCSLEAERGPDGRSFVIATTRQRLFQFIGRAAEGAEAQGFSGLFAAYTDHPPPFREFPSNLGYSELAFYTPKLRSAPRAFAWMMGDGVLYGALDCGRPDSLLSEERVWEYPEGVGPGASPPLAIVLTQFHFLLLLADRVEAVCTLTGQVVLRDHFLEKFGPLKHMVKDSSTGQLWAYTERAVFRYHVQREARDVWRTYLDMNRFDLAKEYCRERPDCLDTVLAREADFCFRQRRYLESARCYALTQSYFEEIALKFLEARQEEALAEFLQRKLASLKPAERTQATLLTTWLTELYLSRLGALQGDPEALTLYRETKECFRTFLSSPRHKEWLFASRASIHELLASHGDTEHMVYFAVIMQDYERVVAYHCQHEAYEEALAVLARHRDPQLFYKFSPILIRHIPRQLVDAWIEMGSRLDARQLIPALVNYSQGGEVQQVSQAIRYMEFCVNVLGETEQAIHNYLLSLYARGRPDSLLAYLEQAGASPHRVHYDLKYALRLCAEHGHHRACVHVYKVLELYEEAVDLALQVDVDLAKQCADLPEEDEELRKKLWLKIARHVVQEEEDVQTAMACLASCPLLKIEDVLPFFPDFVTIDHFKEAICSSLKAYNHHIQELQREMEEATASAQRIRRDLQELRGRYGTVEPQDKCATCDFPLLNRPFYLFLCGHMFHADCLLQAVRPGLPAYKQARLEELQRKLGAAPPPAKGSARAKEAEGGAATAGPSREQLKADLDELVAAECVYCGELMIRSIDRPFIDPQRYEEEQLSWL
Method in brief: as §1

PARP10 = molecular target: T2, PARP10 (human, UniProt Q53GL7 1-1025)
T2 sequence (looked up): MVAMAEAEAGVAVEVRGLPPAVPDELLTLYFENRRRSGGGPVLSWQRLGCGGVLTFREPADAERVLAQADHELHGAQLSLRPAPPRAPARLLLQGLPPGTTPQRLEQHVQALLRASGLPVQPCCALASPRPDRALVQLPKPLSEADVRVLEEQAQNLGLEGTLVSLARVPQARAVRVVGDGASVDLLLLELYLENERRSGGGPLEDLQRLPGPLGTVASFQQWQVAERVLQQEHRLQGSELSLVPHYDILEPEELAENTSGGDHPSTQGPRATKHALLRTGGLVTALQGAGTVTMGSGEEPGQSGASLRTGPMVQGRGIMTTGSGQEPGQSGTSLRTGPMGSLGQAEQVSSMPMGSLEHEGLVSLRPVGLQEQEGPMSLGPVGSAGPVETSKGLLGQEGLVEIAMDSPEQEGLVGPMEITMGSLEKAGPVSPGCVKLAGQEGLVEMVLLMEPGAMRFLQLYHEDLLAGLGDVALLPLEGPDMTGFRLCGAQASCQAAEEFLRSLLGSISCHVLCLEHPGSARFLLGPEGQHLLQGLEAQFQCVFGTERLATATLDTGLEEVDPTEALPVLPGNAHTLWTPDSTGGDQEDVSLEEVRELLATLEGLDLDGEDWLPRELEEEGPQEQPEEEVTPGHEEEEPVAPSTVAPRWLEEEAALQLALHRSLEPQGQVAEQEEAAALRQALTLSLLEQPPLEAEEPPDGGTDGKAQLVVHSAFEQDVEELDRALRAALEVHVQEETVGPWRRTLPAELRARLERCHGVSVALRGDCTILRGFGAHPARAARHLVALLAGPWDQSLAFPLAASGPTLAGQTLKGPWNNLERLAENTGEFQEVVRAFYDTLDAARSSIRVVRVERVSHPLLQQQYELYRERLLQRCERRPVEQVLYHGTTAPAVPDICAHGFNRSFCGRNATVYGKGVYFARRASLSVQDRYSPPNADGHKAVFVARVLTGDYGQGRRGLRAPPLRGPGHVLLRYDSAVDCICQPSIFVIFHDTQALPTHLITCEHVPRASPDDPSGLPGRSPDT
Method in brief: as §1

Measured: binding result

Chain of MYO10 (Q9HD67 whole entry, the tested form may be a part): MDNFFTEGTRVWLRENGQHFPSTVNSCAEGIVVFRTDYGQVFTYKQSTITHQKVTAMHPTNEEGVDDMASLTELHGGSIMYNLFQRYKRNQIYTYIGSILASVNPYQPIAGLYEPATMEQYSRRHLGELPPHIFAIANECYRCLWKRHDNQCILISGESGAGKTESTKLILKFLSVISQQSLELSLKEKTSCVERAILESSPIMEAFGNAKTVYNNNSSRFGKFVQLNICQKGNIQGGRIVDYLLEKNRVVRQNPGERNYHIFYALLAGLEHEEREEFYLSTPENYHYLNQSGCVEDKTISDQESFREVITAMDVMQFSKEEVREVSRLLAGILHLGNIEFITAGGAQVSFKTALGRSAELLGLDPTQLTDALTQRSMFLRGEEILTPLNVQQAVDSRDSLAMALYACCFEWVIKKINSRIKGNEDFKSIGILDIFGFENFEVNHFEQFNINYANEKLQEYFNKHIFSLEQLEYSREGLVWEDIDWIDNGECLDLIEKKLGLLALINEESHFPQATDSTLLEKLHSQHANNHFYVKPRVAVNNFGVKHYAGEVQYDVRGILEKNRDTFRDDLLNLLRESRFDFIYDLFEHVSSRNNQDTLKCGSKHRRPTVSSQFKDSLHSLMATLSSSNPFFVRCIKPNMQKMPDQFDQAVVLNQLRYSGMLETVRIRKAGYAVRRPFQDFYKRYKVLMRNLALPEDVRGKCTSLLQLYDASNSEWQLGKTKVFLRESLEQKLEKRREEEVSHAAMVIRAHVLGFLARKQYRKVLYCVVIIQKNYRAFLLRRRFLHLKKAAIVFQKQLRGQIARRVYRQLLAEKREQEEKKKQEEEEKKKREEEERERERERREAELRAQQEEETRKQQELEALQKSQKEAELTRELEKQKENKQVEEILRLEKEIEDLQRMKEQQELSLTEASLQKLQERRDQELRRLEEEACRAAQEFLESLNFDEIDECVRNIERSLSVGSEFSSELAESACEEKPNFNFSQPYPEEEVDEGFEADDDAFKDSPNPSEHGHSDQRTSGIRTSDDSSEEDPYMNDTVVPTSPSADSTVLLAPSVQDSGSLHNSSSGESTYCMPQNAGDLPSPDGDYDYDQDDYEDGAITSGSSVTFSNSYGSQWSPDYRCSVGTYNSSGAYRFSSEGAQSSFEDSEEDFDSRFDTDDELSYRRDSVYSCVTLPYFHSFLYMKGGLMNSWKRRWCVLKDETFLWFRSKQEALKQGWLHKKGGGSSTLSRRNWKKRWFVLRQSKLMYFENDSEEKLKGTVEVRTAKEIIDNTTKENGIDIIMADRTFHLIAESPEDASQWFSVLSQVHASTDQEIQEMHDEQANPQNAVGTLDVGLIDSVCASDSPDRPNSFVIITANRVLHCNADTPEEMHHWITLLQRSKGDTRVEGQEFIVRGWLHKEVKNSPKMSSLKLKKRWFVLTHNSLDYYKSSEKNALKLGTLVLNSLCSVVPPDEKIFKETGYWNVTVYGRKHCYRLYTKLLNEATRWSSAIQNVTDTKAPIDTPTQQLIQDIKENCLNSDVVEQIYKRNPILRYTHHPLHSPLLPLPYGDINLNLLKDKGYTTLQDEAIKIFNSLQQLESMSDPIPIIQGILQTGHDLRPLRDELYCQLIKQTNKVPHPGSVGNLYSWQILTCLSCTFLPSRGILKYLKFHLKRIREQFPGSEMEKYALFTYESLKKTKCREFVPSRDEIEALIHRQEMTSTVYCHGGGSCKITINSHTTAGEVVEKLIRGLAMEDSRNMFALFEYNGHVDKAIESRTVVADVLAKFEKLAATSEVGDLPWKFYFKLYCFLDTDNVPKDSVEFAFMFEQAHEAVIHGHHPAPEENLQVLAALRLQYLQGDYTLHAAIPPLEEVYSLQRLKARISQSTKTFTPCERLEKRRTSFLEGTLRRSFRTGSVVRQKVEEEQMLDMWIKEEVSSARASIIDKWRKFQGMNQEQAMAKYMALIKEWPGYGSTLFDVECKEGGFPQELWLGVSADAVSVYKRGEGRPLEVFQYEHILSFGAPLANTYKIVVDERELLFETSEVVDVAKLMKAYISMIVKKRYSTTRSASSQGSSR

B1: LZTR1 R810W-FLAG (other, human, UniProt Q8N653 1-840, looked up)
chain: MAGPGSTGGQIGAAALAGGARSKVAPSVDFDHSCSDSVEYLTLNFGPFETVHRWRRLPPCDEFVGARRSKHTVVAYKDAIYVFGGDNGKTMLNDLLRFDVKDCSWCRAFTTGTPPAPRYHHSAVVYGSSMFVFGGYTGDIYSNSNLKNKNDLFEYKFATGQWTEWKIEGRLPVARSAHGATVYSDKLWIFAGYDGNARLNDMWTIGLQDRELTCWEEVAQSGEIPPSCCNFPVAVCRDKMFVFSGQSGAKITNNLFQFEFKDKTWTRIPTEHLLRGSPPPPQRRYGHTMVAFDRHLYVFGGAADNTLPNELHCYDVDFQTWEVVQPSSDSEVGGAEVPERACASEEVPTLTYEERVGFKKSRDVFGLDFGTTSAKQPTQPASELPSGRLFHAAAVISDAMYIFGGTVDNNIRSGEMYRFQFSCYPKCTLHEDYGRLWESRQFCDVEFVLGEKEECVQGHVAIVTARSRWLRRKITQARERLAQKLEQEAAPVPREAPGVAAGGARPPLLHVAIREAEARPFEVLMQFLYTDKIKYPRKGHVEDVLLIMDVYKLALSFQLCRLEQLCRQYIEASVDLQNVLVVCESAARLQLSQLKEHCLNFVVKESHFNQVIMMKEFERLSSPLIVEIVRRKQQPPPRTPLDQPVDIGTSLIQDMKAYLEGAGAEFCDITLLLDGHPRPAHKAILAARSSYFEAMFRSFMPEDGQVNISIGEMVPSRQAFESMLRYIYYGEVNMPPEDSLYLFAAPYYYGFYNNRLQAYCKQNLEMNVTVQNVLQILEAADKTQALDMKRHCLHIIVHQFTKVSKLPTLWSLSQQLLLDIIDSLASHISDKQCAELGADI
notes: Stably expressed in U87 cells by lentivirus; also called LZTR1-FLAG-R810W; LZTR1 RW; not shown: FLAG tag
binds: all assays above
